The series addresses T1, CTCF (full-length) (UniProt P49711).
T1 sequence: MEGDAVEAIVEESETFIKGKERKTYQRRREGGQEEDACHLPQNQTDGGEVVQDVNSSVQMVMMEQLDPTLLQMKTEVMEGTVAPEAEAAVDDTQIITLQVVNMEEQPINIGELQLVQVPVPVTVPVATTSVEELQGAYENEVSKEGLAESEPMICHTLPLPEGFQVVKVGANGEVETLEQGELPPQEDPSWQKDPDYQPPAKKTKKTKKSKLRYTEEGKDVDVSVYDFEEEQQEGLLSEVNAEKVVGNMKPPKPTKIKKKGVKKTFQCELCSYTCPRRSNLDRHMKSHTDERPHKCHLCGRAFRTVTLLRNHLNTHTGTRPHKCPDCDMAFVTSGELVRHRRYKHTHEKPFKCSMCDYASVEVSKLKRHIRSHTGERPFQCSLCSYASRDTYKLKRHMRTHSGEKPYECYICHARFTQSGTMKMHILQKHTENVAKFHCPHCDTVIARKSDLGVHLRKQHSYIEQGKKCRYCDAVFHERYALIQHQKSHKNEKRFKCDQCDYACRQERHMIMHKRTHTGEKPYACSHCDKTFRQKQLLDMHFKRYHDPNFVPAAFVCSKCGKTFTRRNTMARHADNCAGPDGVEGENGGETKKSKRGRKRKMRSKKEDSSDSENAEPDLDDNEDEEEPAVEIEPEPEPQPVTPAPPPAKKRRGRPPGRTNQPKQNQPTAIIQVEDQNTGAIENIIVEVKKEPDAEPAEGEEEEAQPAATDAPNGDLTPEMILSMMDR
Kind of series: SPR. The note with it: 5mC at all CpG (SssI); at least 1000-fold lower than unmethylated; no stable complexes.

In turn, “CGCGKGGTGGCAG (double strand) [DMD7 methylated]” yielded a Ka of 1e+08 M⁻¹.
The result for “CGCGKGGTGGCAG (double strand) [DMD4 methylated]” reads 1e+08 M⁻¹.
